The source of these data is publication PMC7772510.

For the test, the target named is complement fragment iC3b (UniProt P01024). In words: ELISA. Background: In an ELISA, binding on a coated surface is turned into a signal by an enzyme label.

For the substance GST-αM I-domain (domain or fragment), the percent of the anticipated saturation level at 8 µM worked out at 50%.
